From PMC10229228, “Structural insights into a regulatory mechanism of FIR RRM1–FUSE interaction”

Key:
Conditions in all cases: protein: recombinant; tags: N-terminal His6, removed by TEV; single strand
FIR RRM1-2 WT [1] = molecular target: T1, FIR RRM1-2 WT (UniProt Q9UHX1-2 101-293); test: ITC; ITC: 25 mM HEPES pH 7.5, 150 mM NaCl, 0.5 mM TCEP, 20 C; protein 160-240 uM titrated into ssDNA 40-50 uM
FIR RRM1-2 Y115F [2] = molecular target: T2, FIR RRM1-2 Y115F (UniProt Q9UHX1-2 101-293, Y115F); test: X-ray crystallography (1.65 A); ITC: 25 mM HEPES pH 7.5, 150 mM NaCl, 0.5 mM TCEP, 20 C; protein 160-240 uM titrated into ssDNA 40-50 uM
T2 sequence (Q9UHX1 118-310 Y132F): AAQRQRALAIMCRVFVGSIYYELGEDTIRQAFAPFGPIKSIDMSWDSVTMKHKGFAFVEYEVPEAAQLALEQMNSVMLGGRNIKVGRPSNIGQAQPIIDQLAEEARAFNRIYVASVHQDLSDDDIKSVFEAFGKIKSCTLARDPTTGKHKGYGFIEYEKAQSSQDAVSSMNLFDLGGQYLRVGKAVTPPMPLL

FIR RRM1-2 WT [3] = molecular target: T1, FIR RRM1-2 WT; test: X-ray crystallography (2.05 A); ethylene glycol contacts the bound guanine; ITC: 25 mM HEPES pH 7.5, 150 mM NaCl, 0.5 mM TCEP, 20 C; protein 160-240 uM titrated into ssDNA 40-50 uM
FIR RRM1-2 Y115F [4] = molecular target: T2, FIR RRM1-2 Y115F; test: ITC; ITC: 25 mM HEPES pH 7.5, 150 mM NaCl, 0.5 mM TCEP, 20 C; protein 160-240 uM titrated into ssDNA 40-50 uM

T1 sequence (Q9UHX1 118-310): as the sequence (Q9UHX1 118-310 Y132F) above, with F15Y counted along it

## TTGTTTT (ssDNA)
FIR RRM1-2 WT [1]
  Kd: 2 µM

## TTATTTT (ssDNA)
FIR RRM1-2 WT [1]
  Kd: 11 µM

## TTTTTATTTTGTGTT (ssDNA) [FUSE 15-nt]
FIR RRM1-2 Y115F [2]
  binding result: binds
FIR RRM1-2 WT [3]
  binding result: binds

## TAATTTT (ssDNA)
FIR RRM1-2 Y115F [4]
  Kd: ~6 µM
